# Reference: patent US20150203577A1 (Chugai, published 2015)
# T1: mouse FcγRIII extracellular domain, C-terminal His tag (mouse, UniProt P08508 31-215)
# T1 construct: also called mFcγRIII; mFcgRIII
# T1 chain: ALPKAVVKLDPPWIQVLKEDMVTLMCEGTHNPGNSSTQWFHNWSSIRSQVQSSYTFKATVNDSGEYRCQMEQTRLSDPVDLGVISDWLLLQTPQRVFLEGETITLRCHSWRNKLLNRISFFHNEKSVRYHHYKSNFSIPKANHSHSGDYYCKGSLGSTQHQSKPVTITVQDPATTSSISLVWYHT
# T2: mouse FcγRII extracellular domain, C-terminal His tag (mouse, UniProt P08101 30-210)
# T2 construct: also called mFcγRII; mFcgRII
# T2 sequence: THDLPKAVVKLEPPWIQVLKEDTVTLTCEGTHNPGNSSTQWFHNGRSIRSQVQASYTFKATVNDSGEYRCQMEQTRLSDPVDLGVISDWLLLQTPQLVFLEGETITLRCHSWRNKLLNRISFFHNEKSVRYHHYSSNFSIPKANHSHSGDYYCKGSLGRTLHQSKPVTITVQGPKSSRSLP
# Legend:
# [1] = biological target: T1, mouse FcγRIII extracellular domain, …; assay: SPR (Biacore T200), antibody captured on Protein L, mFcγR analyte
# Description: (§1) Each altered antibody was analyzed for its interaction with each Fcγ receptor prepared above using Biacore T100 (GE Healthcare Japan Corp.), Biacore T200 (GE Healthcare Japan Corp.), Biacore A100, or Biacore 4000. The running buffer used was HBS-EP+ (GE Healthcare Japan Corp.). The assay temperature was set to 25° C. The sensor chips used were chips prepared by immobilizing Protein L (ACTIGEN or BioVision) onto Series S Sensor Chip CM5 (GE Healthcare Japan Corp.) or Series S Sensor Chip CM4 (GE Healthcare Japan Corp.) by the amine coupling method.
# (§2) In order to calculate the KD value of each altered antibody for FcγR, kinetic analysis was conducted according to the following method: first, the antibody of interest was captured onto any of these chips and allowed to interact with mFcγR diluted with a running buffer. For the obtained sensorgram, the assay results were globally fit into the 1:1 Langmuir binding model using Biacore Evaluation Software to calculate an association rate constant ka (L/mol/s) and a dissociation rate constant kd (1/s). From these values, the dissociation constant KD (mol/L) was calculated.
# [2] = biological target: T2, mouse FcγRII extracellular domain, …; assay: as above
# Description: as §1, §2
Binder,Kd [1],relative mFcγRIII-binding activity (mIgG1 = 1) [1],Kd [2],relative mFcγRII-binding activity (mIgG1 = 1) [2]
"H237-MB750/MRAL-k0 (antibody, mouse IgG1, kappa, copies: 2 + 2) heavy: QVQLQESGPGLVKPSETLSLTCAVSGHSISHDHAWSWVRQPPGEGLEWIGFISYSGITNYNPSLQGRVTISRDNSKNTLYLQMNSLRAEDTAVYYCARSLARTTAMDYWGEGTLVTVSSAKTTPPSVYPLAPGSAAQTNSMVTLGCLVKGYFPEPVTVTWNSGSLSSGVHTFPAVLQSDLYTLSSSVTVPSSTWPSETVTCNVAHPASSTKVDKKIVPRDCGCKPCICEPNEVELVFIFPPKPKDVLTITLTPKVTCVVVDISKDDPEVQFSWFVDDVEVHTAQTQPREEQFNSTFRSVSELPIMHQDWLNGKEFKCRVNSDAFPAPIEKTISKTKGRPKAPQVYTIPPPKEQMAKDKVSLTCMITDFFPEDITVEWQWNGQPAENYKNTQPIMDTDGSYFVYSKLNVQKSNWEAGNTFTCSVLHEGLHNHHTEKSLSHSPGK light: not shown",705 nM,0.4 fold vs H237-mIgG1/MRAL-k0,7.13 nM,29.4 fold vs H237-mIgG1/MRAL-k0
"H237-MB533/MRAL-k0 (antibody, mouse IgG1, kappa, copies: 2 + 2) heavy: QVQLQESGPGLVKPSETLSLTCAVSGHSISHDHAWSWVRQPPGEGLEWIGFISYSGITNYNPSLQGRVTISRDNSKNTLYLQMNSLRAEDTAVYYCARSLARTTAMDYWGEGTLVTVSSAKTTPPSVYPLAPGSAAQTNSMVTLGCLVKGYFPEPVTVTWNSGSLSSGVHTFPAVLQSDLYTLSSSVTVPSSTWPSETVTCNVAHPASSTKVDKKIVPRDCGCKPCICQPNEVEEVFIFPPKPKDVLTITLTPKVTCVVVDISKDDPEVQFSWFVDDVEVHTAQTQPREEQFNLTFRSVSELPIMHQDWLNGKEFKCRVDSDAFPAPIEKTISKTKGRPKAPQVYTIPPPKEQMAKDKVSLTCMITDFFPEDITVEWQWNGQPAENYKNTQPIMDTDGSYFVYSKLNVQKSNWEAGNTFTCSVLHEGLHNHHTEKSLSHSPGK light: not shown",39 nM,7.2 fold vs H237-mIgG1/MRAL-k0,0.534 nM,394 fold vs H237-mIgG1/MRAL-k0
"H237-MB515/MRAL-k0 (antibody, mouse IgG1, kappa, copies: 2 + 2) heavy: QVQLQESGPGLVKPSETLSLTCAVSGHSISHDHAWSWVRQPPGEGLEWIGFISYSGITNYNPSLQGRVTISRDNSKNTLYLQMNSLRAEDTAVYYCARSLARTTAMDYWGEGTLVTVSSAKTTPPSVYPLAPGSAAQTNSMVTLGCLVKGYFPEPVTVTWNSGSLSSGVHTFPAVLQSDLYTLSSSVTVPSSTWPSETVTCNVAHPASSTKVDKKIVPRDCGCKPCICEPNEVEMVFIFPPKPKDVLTITLTPKVTCVVVDISKDDPEVQFSWFVDDVEVHTAQTQPREEQFNSTFRSVSELPIMHQDWLNGKEFKCRVNSAAFPAPIEKTISKTKGRPKAPQVYTIPPPKEQMAKDKVSLTCMITDFFPEDITVEWQWNGQPAENYKNTQPIMDTDGSYFVYSKLNVQKSNWEAGNTFTCSVLHEGLHNHHTEKSLSHSPGK light: not shown",214 nM,1.3 fold vs H237-mIgG1/MRAL-k0,1.53 nM,137 fold vs H237-mIgG1/MRAL-k0
"H237-MB527/MRAL-k0 (antibody, mouse IgG1, kappa, copies: 2 + 2) heavy: QVQLQESGPGLVKPSETLSLTCAVSGHSISHDHAWSWVRQPPGEGLEWIGFISYSGITNYNPSLQGRVTISRDNSKNTLYLQMNSLRAEDTAVYYCARSLARTTAMDYWGEGTLVTVSSAKTTPPSVYPLAPGSAAQTNSMVTLGCLVKGYFPEPVTVTWNSGSLSSGVHTFPAVLQSDLYTLSSSVTVPSSTWPSETVTCNVAHPASSTKVDKKIVPRDCGCKPCICQPNEVEEVFIFPPKPKDVLTITLTPKVTCVVVDISKDDPEVQFSWFVDDVEVHTAQTQPREEQFNLTFRSVSELPIMHQDWLNGKEFKCRVDSAAFPAPIEKTISKTKGRPKAPQVYTIPPPKEQMAKDKVSLTCMITDFFPEDITVEWQWNGQPAENYKNTQPIMDTDGSYFVYSKLNVQKSNWEAGNTFTCSVLHEGLHNHHTEKSLSHSPGK light: not shown",51 nM,5.5 fold vs H237-mIgG1/MRAL-k0,0.768 nM,273 fold vs H237-mIgG1/MRAL-k0
"H237-MB532/MRAL-k0 (antibody, mouse IgG1, kappa, copies: 2 + 2) heavy: QVQLQESGPGLVKPSETLSLTCAVSGHSISHDHAWSWVRQPPGEGLEWIGFISYSGITNYNPSLQGRVTISRDNSKNTLYLQMNSLRAEDTAVYYCARSLARTTAMDYWGEGTLVTVSSAKTTPPSVYPLAPGSAAQTNSMVTLGCLVKGYFPEPVTVTWNSGSLSSGVHTFPAVLQSDLYTLSSSVTVPSSTWPSETVTCNVAHPASSTKVDKKIVPRDCGCKPCICQPNEVEEVFIFPPKPKDVLTITLTPKVTCVVVDISKDDPEVQFSWFVDDVEVHTAQTQPREEQFNSTFRSVSELPIMHQDWLNGKEFKCRVNSDAFPAPIERTISKTKGRPKAPQVYTIPPPKEQMAKDKVSLTCMITDFFPEDITVEWQWNGQPAENYKNTQPIMDTDGSYFVYSKLNVQKSNWEAGNTFTCSVLHEGLHNHHTEKSLSHSPGK light: not shown",45.4 nM,6.2 fold vs H237-mIgG1/MRAL-k0,0.639 nM,329 fold vs H237-mIgG1/MRAL-k0
"H237-MB530/MRAL-k0 (antibody, mouse IgG1, kappa, copies: 2 + 2) heavy: QVQLQESGPGLVKPSETLSLTCAVSGHSISHDHAWSWVRQPPGEGLEWIGFISYSGITNYNPSLQGRVTISRDNSKNTLYLQMNSLRAEDTAVYYCARSLARTTAMDYWGEGTLVTVSSAKTTPPSVYPLAPGSAAQTNSMVTLGCLVKGYFPEPVTVTWNSGSLSSGVHTFPAVLQSDLYTLSSSVTVPSSTWPSETVTCNVAHPASSTKVDKKIVPRDCGCKPCICQPNEVEEVFIFPPKPKDVLTITLTPKVTCVVVDISKDDPEVQFSWFVDDVEVHTAQTQPREEQFNSTFRSVSELPIMHQDWLNGKEFKCRVDSDAFPAPIEKTISKTKGRPKAPQVYTIPPPKEQMAKDKVSLTCMITDFFPEDITVEWQWNGQPAENYKNTQPIMDTDGSYFVYSKLNVQKSNWEAGNTFTCSVLHEGLHNHHTEKSLSHSPGK light: not shown",35.1 nM,8 fold vs H237-mIgG1/MRAL-k0,0.337 nM,623 fold vs H237-mIgG1/MRAL-k0
"H237-MB531/MRAL-k0 (antibody, mouse IgG1, kappa, copies: 2 + 2) heavy: QVQLQESGPGLVKPSETLSLTCAVSGHSISHDHAWSWVRQPPGEGLEWIGFISYSGITNYNPSLQGRVTISRDNSKNTLYLQMNSLRAEDTAVYYCARSLARTTAMDYWGEGTLVTVSSAKTTPPSVYPLAPGSAAQTNSMVTLGCLVKGYFPEPVTVTWNSGSLSSGVHTFPAVLQSDLYTLSSSVTVPSSTWPSETVTCNVAHPASSTKVDKKIVPRDCGCKPCICQPNEVEEVFIFPPKPKDVLTITLTPKVTCVVVDISKDDPEVQFSWFVDDVEVHTAQTQPREEQFNSTFRSVSELPIMHQDWLNGKEFKCRVDSAAFPAPIERTISKTKGRPKAPQVYTIPPPKEQMAKDKVSLTCMITDFFPEDITVEWQWNGQPAENYKNTQPIMDTDGSYFVYSKLNVQKSNWEAGNTFTCSVLHEGLHNHHTEKSLSHSPGK light: not shown",85 nM,3.3 fold vs H237-mIgG1/MRAL-k0,0.918 nM,229 fold vs H237-mIgG1/MRAL-k0
"H237-MB529/MRAL-k0 (antibody, mouse IgG1, kappa, copies: 2 + 2) heavy: QVQLQESGPGLVKPSETLSLTCAVSGHSISHDHAWSWVRQPPGEGLEWIGFISYSGITNYNPSLQGRVTISRDNSKNTLYLQMNSLRAEDTAVYYCARSLARTTAMDYWGEGTLVTVSSAKTTPPSVYPLAPGSAAQTNSMVTLGCLVKGYFPEPVTVTWNSGSLSSGVHTFPAVLQSDLYTLSSSVTVPSSTWPSETVTCNVAHPASSTKVDKKIVPRDCGCKPCICQPNEVEEVFIFPPKPKDVLTITLTPKVTCVVVDISKDDPEVQFSWFVDDVEVHTAQTQPREEQFNLTFRSVSELPIMHQDWLNGKEFKCRVNSAAFPAPIERTISKTKGRPKAPQVYTIPPPKEQMAKDKVSLTCMITDFFPEDITVEWQWNGQPAENYKNTQPIMDTDGSYFVYSKLNVQKSNWEAGNTFTCSVLHEGLHNHHTEKSLSHSPGK light: not shown",47.6 nM,5.9 fold vs H237-mIgG1/MRAL-k0,0.745 nM,282 fold vs H237-mIgG1/MRAL-k0
"H237-MB476/MRAL-k0 (antibody, mouse IgG1, kappa, copies: 2 + 2) heavy: QVQLQESGPGLVKPSETLSLTCAVSGHSISHDHAWSWVRQPPGEGLEWIGFISYSGITNYNPSLQGRVTISRDNSKNTLYLQMNSLRAEDTAVYYCARSLARTTAMDYWGEGTLVTVSSAKTTPPSVYPLAPGSAAQTNSMVTLGCLVKGYFPEPVTVTWNSGSLSSGVHTFPAVLQSDLYTLSSSVTVPSSTWPSETVTCNVAHPASSTKVDKKIVPRDCGCKPCICQPNEVEEVFIFPPKPKDVLTITLTPKVTCVVVDISKDDPEVQFSWFVDDVEVHTAQTQPREEQFNSTFRSVSELPIMHQDWLNGKEFKCRVNSAAFPAPIEKTISKTKGRPKAPQVYTIPPPKEQMAKDKVSLTCMITDFFPEDITVEWQWNGQPAENYKNTQPIMDTDGSYFVYSKLNVQKSNWEAGNTFTCSVLHEGLHNHHTEKSLSHSPGK light: not shown",107 nM,2.6 fold vs H237-mIgG1/MRAL-k0,0.804 nM,261 fold vs H237-mIgG1/MRAL-k0
